In paper PMC10989797, “Mechanistic insights into the key marine dimethylsulfoniopropionate synthesis enzyme DsyB/DSYB” (mLife, 2022):
Values belong to the molecule of their own block, whether it stands above or below them.

How the values were obtained:
N. denitrificans DsyB [1] = target: T1, N. denitrificans DsyB (Nisaea denitrificans, UniProt A0A979HMS8); assay: X-ray crystal structure of complex; native MS; format: binding
T1 construct: full length, 337 residues (Met1-Glu337), C-terminal His-tag (pET22b), E. coli BL21(DE3); initiator Met mostly cleaved; monomer 37,215 Da predicted; homodimer in solution

[2] = target: Nisaea denitrificans DsyB (Nisaea denitrificans DR41_21 (DSM 18348)); assay: SEC; gel filtration of DsyB in solution; conalbumin (75,000 Da) and ovalbumin (43,000 Da) as markers
[3] = target: Nisaea denitrificans DsyB (Nisaea denitrificans DR41_21 (DSM 18348)); assay: native MS; nondenaturing MS of as-isolated DsyB exchanged into 250 mM ammonium acetate, pH 8.0; dimer region also seen with 25 equivalents of SAM
N. denitrificans DsyB [4] = target: T1, N. denitrificans DsyB; assay: X-ray crystal structure of complex; format: binding; conditions: DsyB-SAH-MTHB complex; SAM site in C-domain; 1 mM SAH and 1 mM DL-MTHB
[5] = substrate: C[S+](CC[C@H](N)C(=O)O)C[C@H]1O[C@@H](n2cnc3c(N)ncnc32)[C@H](O)[C@@H]1O; assay: cells, lysate or membranes named; conditions: 1 mM DL-MTHB, 0-2 mM SAM, 1.97 µM enzyme activated with heat-killed L. aggregata dsyB- lysate fractions, 50 mM Tris-HCl, 100 mM NaCl, pH 8.0, 28 °C
[6] = substrate: CSCCC(O)C(=O)O; assay: GC of DMS released from product by alkali; nonlinear fit; format: biochemical, Nisaea denitrificans; conditions: 1 mM SAM, 1.97 µM enzyme activated with heat-killed L. aggregata dsyB- lysate fractions, racemic substrate 0-2 mM, 50 mM Tris-HCl, 100 mM NaCl, pH 8.0, 28 °C

Molecule: C[S+](CC[C@H](N)C(=O)O)C[C@H]1O[C@@H](n2cnc3c(N)ncnc32)[C@H](O)[C@@H]1O (stereo partly shown) [SAM]
- X-ray crystal structure of complex; native MS (N. denitrificans DsyB [1]; DsyB-SAM complex, SAM bound in chains A-C, not D, 1 mM SAM): three monomers (Chain A, B, and C) of the asymmetric unit contained SAM molecules

- stoichiometry N [2]: 2
- stoichiometry N [3]: 2
Molecule: Nisaea denitrificans DsyB (enzyme)

Molecule: CSCCC(O)C(=O)O (racemic) [MTHB]
- X-ray crystal structure of complex; native MS (N. denitrificans DsyB [1]; DsyB-SAH-MTHB complex, poor MTHB density, >6 Å from SAH, presumed initial binding site, 1 mM DL-MTHB): the MTHB cosubstrate molecule is located between the C‐domain and the N‐domain

Molecule: Nc1ncnc2c1ncn2[C@@H]1O[C@H](CSCC[C@H](N)C(=O)O)[C@@H](O)[C@H]1O [SAH]
- X-ray crystal structure of complex (N. denitrificans DsyB [4]): we solved the crystal structures of complexes of DsyB with SAM and with SAH‐MTHB

B1: N. denitrificans DsyB (Nisaea denitrificans DSM 18348) (protein)
chain: MTLLTNAEEISDIAFGFMGSKALFAALHHGVFTCLADGPLSVEEMAAATGLHPDRVQTLLTALASLGVVSAVEGRFANSPAAESFLVKGAKYDFGDYLRLQVDRQMYGLLDQIEDAIANNLPDDATSSYADWFSDPEQAKLYSNSQHAGSLGPARGLAKLIDLSGGKKLLDVGGGTGAFAITLCKAFADLAATIVDFPNVAALGKGYVEKAGLSDRIEYVIGDALRTEWPREQDAILMSYLFSGVAGDEHDSLLKRAYDHLVPGGRLLIHDFVVTADRTGPKLAALWQLQHTAFTPEARSLDDEWLAEQLKKTGFTDVKVGPMIPGMTMLAEAVRPE
notes: full length, 337 residues (Met1-Glu337), C-terminal His-tag (pET22b), E. coli BL21(DE3); initiator Met mostly cleaved; monomer 37,215 Da predicted; homodimer in solution
- Km [5]: 160 ± 2 µM
- Km [6]: 140 ± 20 µM
